Biological target: Ubiquitin-B+1 (UBB+1), untagged, expressed in HEK293FT cells
Assay: co-IP with anti-UBB+1 antibody from HEK293FT cells, immunoblot; MS/MS of co-purified proteins

B1: UCH-L1 (Ubiquitin C-terminal hydrolase L1), endogenous in HEK293FT cells (enzyme, UniProt P09936 1-220, looked up)
chain: MQLKPMEINPEMLNKVLSRLGVAGQWRFVDVLGLEEESLGSVPAPACALLLLFPLTAQHENFRKKQIEELKGQEVSPKVYFMKQTIGNSCGTIGLIHAVANNQDKLGFEDGSVLKQFLSETEKMSPEDRAKCFEKNEAIQAAHDAVAQEGQCRVDDKVNFHFILFNNVDGHLYELDGRMPFPVNHGASSEDTLLKDAAKVCREFTEREQGEVRFSAVALC
notes: Endogenous protein in the lysate of HEK293FT (human) cells; also called UCL-H1; endogenous UCH-L1
B1: binds.

— patent US20220365073A1 (TECHNION RESEARCH AND DEVELOPMENT FOUNDATION, published 2022)
